Experimental findings from patent publication US20220380459A1 (DRAGONFLY THERAPEUTICS, published 2022) are described below.

In this assay the target is T1, human CD33 expressed on cells (human, UniProt P20138 18-364).
T1 construct: endogenous CD33 of human AML cell lines and blood monocytes; also called cell-expressed CD33 (Molm-13, Mv4-11, monocytes)
The assay is described as follows: flow cytometry on Molm-13 cells, fluorophore-conjugated anti-human IgG secondary antibody, MFI as fold over background (FOB).

T1 sequence (P20138 18-364): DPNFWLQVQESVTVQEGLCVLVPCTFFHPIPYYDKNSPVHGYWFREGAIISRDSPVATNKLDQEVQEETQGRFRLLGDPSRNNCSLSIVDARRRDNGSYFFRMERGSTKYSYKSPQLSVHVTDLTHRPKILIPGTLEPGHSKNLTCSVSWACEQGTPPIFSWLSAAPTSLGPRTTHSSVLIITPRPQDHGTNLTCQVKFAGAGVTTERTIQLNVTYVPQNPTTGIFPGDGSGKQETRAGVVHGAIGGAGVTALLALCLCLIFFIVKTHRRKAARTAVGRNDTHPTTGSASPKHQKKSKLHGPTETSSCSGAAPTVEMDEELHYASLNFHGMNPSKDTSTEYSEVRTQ
Protocol: Binding of the TriNKET was detected using a fluorophore conjugated anti-human IgG secondary antibody. Cells were analyzed by flow cytometry, binding MFI to cell expressed CD33 was normalized to secondary antibody controls to obtain fold over background values.

B1: A44.G59 (bispecific antibody)
NKG2D-binding VH: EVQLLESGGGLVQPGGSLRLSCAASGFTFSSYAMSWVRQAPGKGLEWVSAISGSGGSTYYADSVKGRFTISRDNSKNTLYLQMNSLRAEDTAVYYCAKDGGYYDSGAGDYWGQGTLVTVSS
NKG2D-binding VL: DIQMTQSPSSVSASVGDRVTITCRASQGIDSWLAWYQQKPGKAPKLLIYAASSLQSGVPSRFSGSGSGTDFTLTISSLQPEDFATYYCQQGVSYPRTFGGGTKVEIK
CD33-binding VH: EVQLVESGGGLVQPGGSLRLSCAASGFTFSSYGMSWVRQAPGKGLEWVANIKQDGSEKYYVDSVKGRFTISRDNAKNSLYLQMNSLRAEDTAVYYCAREGGPYYDSSGYFVYYGMDVWGQGTTVTVSS
CD33-binding VL: DIQMTQSPSTLSASVGDRVTITCRASQSISSWLAWYQQKPGKAPKLLIYDASSLESGVPSRFSGSGSGTEFTLTISSLQPDDFATYYCQQYESFPTFGGGTKVEIK
For B1, the binding result was “binds”.

B2: A44.H76 (bispecific antibody)
NKG2D-binding VH: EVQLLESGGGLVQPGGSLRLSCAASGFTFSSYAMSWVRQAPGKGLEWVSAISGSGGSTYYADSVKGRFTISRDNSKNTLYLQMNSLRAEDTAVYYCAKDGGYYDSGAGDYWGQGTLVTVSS
NKG2D-binding VL: DIQMTQSPSSVSASVGDRVTITCRASQGIDSWLAWYQQKPGKAPKLLIYAASSLQSGVPSRFSGSGSGTDFTLTISSLQPEDFATYYCQQGVSYPRTFGGGTKVEIK
CD33-binding VH: EVQLLESGGGLVQPGGSLRLSCAASGFTFSKYTMSWVRQAPGKGLEWVSAIVGSGESTYFADSVKGRFTISRDNSKNTLYLQMNSLRAEDTAVYYCAREGGPYYDSSGYFVYYGMDVWGQGTTVTVSS
CD33-binding VL: DIQMTQSPSTLSASVGDRVTITCRASQSISSWLAWYQQKPGKAPKLLIYKASSLESGVPSRFSGSGSGTEFTLTISSLQPDDFATYYCQQYDDLPTFGGGTKVEIK
For B2, the binding result is reported as “binds”.

B3: A44.I07 (bispecific antibody)
NKG2D-binding VH: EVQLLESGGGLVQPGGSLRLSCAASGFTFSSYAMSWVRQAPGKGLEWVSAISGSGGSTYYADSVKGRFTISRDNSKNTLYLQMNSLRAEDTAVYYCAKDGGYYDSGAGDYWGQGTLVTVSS
NKG2D-binding VL: DIQMTQSPSSVSASVGDRVTITCRASQGIDSWLAWYQQKPGKAPKLLIYAASSLQSGVPSRFSGSGSGTDFTLTISSLQPEDFATYYCQQGVSYPRTFGGGTKVEIK
CD33-binding VH: EVQLVESGGGLVQPGGSLRLSCAASGFTFGSYWMSWVRQAPGKGLEWVATIKQDGSEKSYVDSVKGRFTISRDNAKNSLYLQMNSLRAEDTAVYYCARPLNAGELDVWGQGTMVTVSS
CD33-binding VL: DIQMTQSPSTLSASVGDRVTITCRASQSISSWLAWYQQKPGKAPKLLIYEASSLESGVPSRFSGSGSGTEFTLTISSLQPDDFATYYCQQSQSYPPITFGGGTKVEIK
In the case of B3, the binding result is given as “binds”.

B4: A49.G59 (bispecific antibody)
NKG2D-binding VH: EVQLVESGGGLVKPGGSLRLSCAASGFTFSSYSMNWVRQAPGKGLEWVSSISSSSSYIYYADSVKGRFTISRDNAKNSLYLQMNSLRAEDTAVYYCARGAPMGAAAGWFDPWGQGTLVTVSS
NKG2D-binding VL: DIQMTQSPSSVSASVGDRVTITCRASQGISSWLAWYQQKPGKAPKLLIYAASSLQSGVPSRFSGSGSGTDFTLTISSLQPEDFATYYCQQGVSFPRTFGGGTKVEIK
CD33-binding VH: EVQLVESGGGLVQPGGSLRLSCAASGFTFSSYGMSWVRQAPGKGLEWVANIKQDGSEKYYVDSVKGRFTISRDNAKNSLYLQMNSLRAEDTAVYYCAREGGPYYDSSGYFVYYGMDVWGQGTTVTVSS
CD33-binding VL: DIQMTQSPSTLSASVGDRVTITCRASQSISSWLAWYQQKPGKAPKLLIYDASSLESGVPSRFSGSGSGTEFTLTISSLQPDDFATYYCQQYESFPTFGGGTKVEIK
Regarding B4, the binding result is recorded as “binds”.

B5: A44.I35 (bispecific antibody)
NKG2D-binding VH: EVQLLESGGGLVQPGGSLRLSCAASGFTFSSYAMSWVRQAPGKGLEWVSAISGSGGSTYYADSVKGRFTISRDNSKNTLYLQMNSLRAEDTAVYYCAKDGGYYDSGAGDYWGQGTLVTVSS
NKG2D-binding VL: DIQMTQSPSSVSASVGDRVTITCRASQGIDSWLAWYQQKPGKAPKLLIYAASSLQSGVPSRFSGSGSGTDFTLTISSLQPEDFATYYCQQGVSYPRTFGGGTKVEIK
CD33-binding VH: QLQLQESGPGLVKPSETLSLTCTVSGGSISSTDYYWGWIRQPPGKGLEWIGSIGYSGTYYNPSLKSRVTISVDTSKNQFSLKLSSVTAADTAVYYCARETAHDVHGMDVWGQGTTVTVSS
CD33-binding VL: EIVLTQSPATLSLSPGERATLSCRASHSVYSYLAWYQQKPGQAPRLLIYDASNRATGIPARFSGSGSGTDFTLTISSLEPEDFAVYYCQQYDNLPTFGGGTKVEIK
On to B5, for which the binding result is listed as “binds”.
